T1: hCD32b (FcgRIIb) (human, UniProt P31994 46-217)
T1 construct: not shown: C-terminal his-tag
T1 sequence (looked up): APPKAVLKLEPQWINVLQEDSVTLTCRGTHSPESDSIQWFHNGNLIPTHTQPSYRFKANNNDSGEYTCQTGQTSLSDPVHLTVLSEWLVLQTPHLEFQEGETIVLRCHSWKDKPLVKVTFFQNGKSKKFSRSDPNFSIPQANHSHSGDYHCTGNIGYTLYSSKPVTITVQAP

T2: hCD32a-R131 (FcgRIIa-R131) (human, UniProt P12318 36-218)
T2 construct: not shown: C-terminal his-tag
T2 sequence (looked up): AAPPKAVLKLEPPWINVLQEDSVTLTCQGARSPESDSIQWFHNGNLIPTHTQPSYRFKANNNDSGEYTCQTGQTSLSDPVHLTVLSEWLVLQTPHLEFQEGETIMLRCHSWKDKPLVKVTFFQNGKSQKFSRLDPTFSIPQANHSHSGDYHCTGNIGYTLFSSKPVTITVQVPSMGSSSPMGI

T3: hCD32a-H131 (FcgRIIa-H131) (human, UniProt P12318 36-218)
T3 construct: not shown: C-terminal his-tag
T3 sequence (looked up): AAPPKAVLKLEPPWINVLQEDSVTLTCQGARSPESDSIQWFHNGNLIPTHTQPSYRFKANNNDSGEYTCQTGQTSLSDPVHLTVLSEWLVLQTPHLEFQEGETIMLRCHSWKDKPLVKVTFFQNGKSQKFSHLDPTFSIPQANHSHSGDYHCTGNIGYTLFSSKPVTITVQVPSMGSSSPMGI

B1: 3h56-269-IgG1.1f (Fc fusion)
chain: EVQLLESGGGLVQPGGSLRLSCAASGFTFRDYEMWWVRQAPGKGLERVSAINPQGTRTYYADSVKGRFTISRDNSKNTLYLQMNSLRAEDTAVYYCAKLPFRFSDRGQGTLVTVSSASTEPKSCDKTHTCPPCPAPEAEGAPSVFLFPPKPKDTLMISRTPEVTCVVVDVSHEDPEVKFNWYVDGVEVHNAKTKPREEQYNSTYRVVSVLTVLHQDWLNGKEYKCKVSNKALPSSIEKTISKAKGQPREPQVYTLPPSREEMTKNQVSLTCLVKGFYPSDIAVEWESNGQPENNYKTTPPVLDSDGSFFLYSKLTVDKSRWQQGNVFSCSVMHEALHNHYTQKSLSLSPGK
notes: anti-CD40 dAb-Fc
B2: 3h56-269-IgG1.3f (Fc fusion)
chain: EVQLLESGGGLVQPGGSLRLSCAASGFTFRDYEMWWVRQAPGKGLERVSAINPQGTRTYYADSVKGRFTISRDNSKNTLYLQMNSLRAEDTAVYYCAKLPFRFSDRGQGTLVTVSSASTEPKSCDKTHTCPPCPAPEAEGAPSVFLFPPKPKDTLMISRTPEVTCVVVDVSHEDPEVKFNWYVDGVEVHNAKTKPREEQYNSTYRVVSVLTVLHQDWLNGKEYKCKVSNKALPAPIEKTISKAKGQPREPQVYTLPPSREEMTKNQVSLTCLVKGFYPSDIAVEWESNGQPENNYKTTPPVLDSDGSFFLYSKLTVDKSRWQQGNVFSCSVMHEALHNHYTQKSLSLSPGK
notes: dAb-Fc fusion protein
B3: 3h56-269-IgG1.1f (Fc fusion)
chain: EVQLLESGGGLVQPGGSLRLSCAASGFTFRDYEMWWVRQAPGKGLERVSAINPQGTRTYYADSVKGRFTISRDNSKNTLYLQMNSLRAEDTAVYYCAKLPFRFSDRGQGTLVTVSSASTEPKSCDKTHTCPPCPAPEAEGAPSVFLFPPKPKDTLMISRTPEVTCVVVDVSHEDPEVKFNWYVDGVEVHNAKTKPREEQYNSTYRVVSVLTVLHQDWLNGKEYKCKVSNKALPSSIEKTISKAKGQPREPQVYTLPPSREEMTKNQVSLTCLVKGFYPSDIAVEWESNGQPENNYKTTPPVLDSDGSFFLYSKLTVDKSRWQQGNVFSCSVMHEALHNHYTQKSLSLSPGK
notes: dAb-Fc fusion protein

Tests used:
hCD32b (FcgRIIb) = biological target: T1, hCD32b (FcgRIIb); assay: SPR, FcgR analyte titration on protein A captured dAb-Fc
Procedure: (§1) A second SPR assay for testing the interaction between antibodies or dAb-Fc proteins with FcgR proteins is a protein A capture method. These experiments are also performed on either a Biacore™ T100 or Biacore™ T200 instrument (GE Healthcare) at 25° C. For these studies, protein A is immobilized on flow cells 1-4 of a CM5 sensor chip using standard ethyl (dimethylaminopropyl) carbodiimide (EDC)/N-hydroxysuccinimide (NHS) chemistry, with ethanolamine blocking, in a running buffer of 10 mM HEPES pH 7.4, 150 mM NaCl, 3 mM EDTA, 0.05% surfactant p20, to a density of ˜3000 RU.

[1] = biological target: T4, hCD16b-NA2 (FcgRIIIb-NA2) (human, UniProt O75015 17-200, limits assumed); assay: as above
T4 construct: not shown: C-terminal his-tag
Procedure: as §1

[2] = biological target: T2, hCD32a-R131 (FcgRIIa-R131); assay: as above
Procedure: as §1

[3] = biological target: T3, hCD32a-H131 (FcgRIIa-H131); assay: as above
Procedure: as §1

[4] = biological target: T5, hCD16a-V158 (FcgRIIIa-V158) (human, UniProt P08637 17-208); assay: as above
T5 construct: not shown: C-terminal his-tag
Procedure: as §1

hCD40-Fc = biological target: T6, hCD40-Fc (human, UniProt P25942 21-193); assay: SPR, immobilized hCD40-Fc, dAb-Fc analyte (avidity)
T6 construct: not shown: Fc part of hCD40-Fc, not described
T6 sequence (P25942 21-193): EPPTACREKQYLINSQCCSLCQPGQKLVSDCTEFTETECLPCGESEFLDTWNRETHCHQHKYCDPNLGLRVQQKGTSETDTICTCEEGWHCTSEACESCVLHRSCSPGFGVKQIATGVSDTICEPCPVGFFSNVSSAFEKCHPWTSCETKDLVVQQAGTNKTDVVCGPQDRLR

T4 sequence (O75015 17-200 N65S limits assumed): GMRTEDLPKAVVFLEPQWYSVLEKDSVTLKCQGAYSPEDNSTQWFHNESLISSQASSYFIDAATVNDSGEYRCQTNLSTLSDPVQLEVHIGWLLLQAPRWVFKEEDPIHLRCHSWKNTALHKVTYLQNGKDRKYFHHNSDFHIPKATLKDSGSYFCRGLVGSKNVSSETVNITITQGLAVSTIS
T5 sequence (P08637 17-208 F176V limits assumed): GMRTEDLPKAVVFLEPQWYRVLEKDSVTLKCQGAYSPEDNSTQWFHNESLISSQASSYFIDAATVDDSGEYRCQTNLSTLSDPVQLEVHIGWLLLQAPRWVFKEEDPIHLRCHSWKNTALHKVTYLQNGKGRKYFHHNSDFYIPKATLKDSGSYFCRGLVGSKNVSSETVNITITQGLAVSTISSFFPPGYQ

Binder | Kd (hCD32b (FcgRIIb)) | Kd [1] | Kd [2] | Kd [3] | Kd [4] | KDapparent (hCD40-Fc)
B1 | > 5 µM | > 5 µM | > 5 µM | > 5 µM | > 5 µM | –
B2 | – | – | – | – | – | < 1 nM
B3 | – | – | – | – | – | < 1 nM
